Target: Bio-SAP97 (SAP97 with N-terminal tag for in vivo biotinylation) (UniProt Q62696)
Experiment: pull-down; streptavidin-sepharose pull-down of biotin-tagged SAP97 or PSD-95 from Triton X-100 extracts (TNE buffer, pH 7.5, 120 mM NaCl, 4°C) of co-transfected HEK293 or HEK293T cells; western blot

Chain of UniProt Q62696 (Q62696 whole entry): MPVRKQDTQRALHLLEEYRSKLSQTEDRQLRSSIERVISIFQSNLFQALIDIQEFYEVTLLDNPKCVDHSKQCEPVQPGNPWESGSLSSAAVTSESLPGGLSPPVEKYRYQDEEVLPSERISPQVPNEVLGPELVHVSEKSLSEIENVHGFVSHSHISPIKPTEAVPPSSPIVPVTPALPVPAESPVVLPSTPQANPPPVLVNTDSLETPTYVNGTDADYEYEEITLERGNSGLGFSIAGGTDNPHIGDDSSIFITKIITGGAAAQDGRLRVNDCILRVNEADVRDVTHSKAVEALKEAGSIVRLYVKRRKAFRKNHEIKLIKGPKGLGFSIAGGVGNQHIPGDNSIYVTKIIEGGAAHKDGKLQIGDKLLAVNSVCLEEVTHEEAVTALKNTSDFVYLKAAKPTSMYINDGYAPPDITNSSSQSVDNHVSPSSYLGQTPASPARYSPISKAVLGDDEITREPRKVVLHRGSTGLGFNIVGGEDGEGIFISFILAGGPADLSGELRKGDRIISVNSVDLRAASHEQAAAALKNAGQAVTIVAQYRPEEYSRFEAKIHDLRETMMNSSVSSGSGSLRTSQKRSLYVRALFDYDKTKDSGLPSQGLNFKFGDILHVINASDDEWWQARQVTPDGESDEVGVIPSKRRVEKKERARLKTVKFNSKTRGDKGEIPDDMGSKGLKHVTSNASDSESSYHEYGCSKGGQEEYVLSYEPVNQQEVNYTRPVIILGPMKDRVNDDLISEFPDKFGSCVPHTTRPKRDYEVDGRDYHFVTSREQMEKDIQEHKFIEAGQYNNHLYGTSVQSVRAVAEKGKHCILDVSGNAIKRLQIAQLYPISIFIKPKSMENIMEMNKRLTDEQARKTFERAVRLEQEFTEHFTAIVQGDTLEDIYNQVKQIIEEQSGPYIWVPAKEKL

percent decrease in association against wt GluA1: 60 to 70%
Substance: N-terminally GFP-tagged GluA1 C893S mutant (receptor)
